Molecular target: SARS-CoV-2 JN.1 RBD, biotinylated (SARS-CoV-2) (UniProt P0DTC2)
Experiment: BLI; […]; 300 s association, 300 s dissociation; 10x kinetics buffer; […]; global fit, 1:1 model; […]

## TRI2-2 homotrimeric miniprotein inhibitor (designed binder)
  Kd: 6.19 nM
  koff: 0.00175 s⁻¹
  kon: 282000 M⁻¹ s⁻¹
